The record followed here is article PMC7555777, “Cataract-Associated New Mutants S175G/H181Q of βΒ2-Crystallin and P24S/S31G of γD-Crystallin Are Involved in Protein Aggregation by Structural Changes” (International Journal of Molecular Sciences, 2020).

This data set deals with the molecule itself. Kind of data set: SEC; Superdex 200 HR 10/30 in PBS; 450 µg/100 µL protein loaded; 0.5 mL/min; UV 280 nm; markers albumin (66.4 kDa) and α-lactalbumin (14.2 kDa); dimer in rapid equilibrium with monomer. In general terms: SEC sorts molecules by how far they enter the pores of the column.

Positions count from the first letter of the chain named. In names and notes the source's numbering stands.

B1: wild-type βB2-crystallin (natural protein, human)
chain: ASDHQTQAGKPQSLNPKIIIFEQENFQGHSHELNGPCPNLKETGVEKAGSVLVQAGPWVGYEQANCKGEQFVFEKGEYPRWDSWTSSRRTDSLSSLRPIKVDSQEHKIILYENPNFTGKKMEIIDDDVPSFHAHGYQEKVSSVRVQSGTWVGYQYPGYRGLQYLLEKGDYKDSSDFGAPHPQVQSVRRIRDMQWHQRGAFHPSN
notes: human beta-crystallin B2 (CRBB2 cDNA from a human cDNA library in pGEX-4t-1); Residues left by the vector after the thrombin cut are not described; also called WT βB2-crystallin; Beta-crystallin B2; source: E. coli BL21 (DE3), purified (glutathione-agarose, GST cut off with thrombin)
On to B1, for which the binding result was “binds”.

B2: S175G/H181Q mutant βB2-crystallin (natural protein, human)
chain: B1 chain with S174G, H180Q
notes: human beta-crystallin B2 (CRBB2 cDNA in pGEX-4t-1) with the two changes found in cataract lenses, made by site-directed mutagenesis; Residues left by the vector after the thrombin cut are not described; also called S175G/H181Q βB2-crystallin; CRBB2 S175G/H181Q; source: E. coli BL21 (DE3), purified (glutathione-agarose, GST cut off with thrombin)
In the case of B2, the binding result is recorded as “binds”.
